Measurements: patent US20240270846A1 (published 2024)

Biological target: T1, CD3 epsilon homodimer protein (UniProt P07766 23-126)
T1 construct: Construct of the homodimer protein is not described; also called CD3 (CD3 epsilon)
Test: SPR (Biacore T200), CD3 epsilon homodimer on CM4 chip, one-arm antibody as analyte; ratio to unaltered CE115HA000;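 also: surface plasmon resonance run at 25 °C with HBS-EP+ as running buffer, CD3 epsilon homodimer attached by amine coupling, antibody passed over as analyte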

T1 sequence (P07766 23-126): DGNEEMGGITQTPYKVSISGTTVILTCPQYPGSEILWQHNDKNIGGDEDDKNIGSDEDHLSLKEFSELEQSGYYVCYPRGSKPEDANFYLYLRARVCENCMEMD

| Binder | KD ratio (KD value of CE115HA000/KD value of the altered form) |
| --- | --- |
| CE115HA000 A99D one-arm antibody (antibody, human IgG1, kappa, L234A L235A, N297A, name in Kabat numbering, one-arm antibody) heavy: QVQLVESGGGVVQPGRSLRLSCAASGFTFSNAWMHWVRQAPGKGLEWVAQIKAKSNNYATYYAESVKGRFTISRDDSKNSLYLQMNSLKTEDTAVYYCRYVHYGDYYGVDAWGQGTTVTVSSASTKGPSVFPLAPSSKSTSGGTAALGCLVKDYFPEPVTVSWNSGALTSGVHTFPAVLQSSGLYSLSSVVTVPSSSLGTQTYICNVNHKPSNTKVDKKVEPKSCDKTHTCPPCPAPEAAGGPSVFLFPPKPKDTLMISRTPEVTCVVVDVSHEDPEVKFNWYVDGVEVHNAKTKPREEQYASTYRVVSVLTVLHQDWLNGKEYKCKVSNKALPAPIEKTISKAKGQPREPQVYTLPPSRCELTKNQVSLSCAVKGFYPSDIAVEWESNGQPENNYKTTPPVLDSDGSFFLVSKLTVDKSRWQQGNVFSCSVMHEALHNHYTQKSLSLSPDYKDDDDK EPKSSDKTHTCPPCPAPELLGGPSVFLFPPKPKDTLMISRTPEVTCVVVDVSHEDPEVKFNWYVDGVEVHNAKTKPREEQYNSTYRVVSVLTVLHQDWLNGKEYKCKVSNKALPAPIEKTISKAKGQPREPQVCTLPPSRDELTKNQVSLWCLVKGFYPSDIAVEWESNGQPENNYKTTPPVLDSDGSFFLYSKLTVDKSRWQQGNVFSCSVMHEALHNRYTQKSLSLSP light: DIVMTQSPLSLPVTPGEPASISCRSSQSLVHSNRNTYLHWYQQKPGQAPRLLIYKVSNRFSGVPDRFSGSGSGTDFTLKISRVEAEDVGVYYCGQGTQVPYTFGQGTKLEIKRTVAAPSVFIFPPSDEQLKSGTASVVCLLNNFYPREAKVQWKVDNALQSGNSQESVTEQDSKDSTYSLSSTLTLSKADYEKHKVYACEVTHQGLSSPVTKSFNRGEC | 1.03 |
| CE115HA000 A99F one-arm antibody (antibody, human IgG1, kappa, L234A L235A, N297A, name in Kabat numbering, one-arm antibody) heavy: QVQLVESGGGVVQPGRSLRLSCAASGFTFSNAWMHWVRQAPGKGLEWVAQIKAKSNNYATYYAESVKGRFTISRDDSKNSLYLQMNSLKTEDTAVYYCRYVHYGFYYGVDAWGQGTTVTVSSASTKGPSVFPLAPSSKSTSGGTAALGCLVKDYFPEPVTVSWNSGALTSGVHTFPAVLQSSGLYSLSSVVTVPSSSLGTQTYICNVNHKPSNTKVDKKVEPKSCDKTHTCPPCPAPEAAGGPSVFLFPPKPKDTLMISRTPEVTCVVVDVSHEDPEVKFNWYVDGVEVHNAKTKPREEQYASTYRVVSVLTVLHQDWLNGKEYKCKVSNKALPAPIEKTISKAKGQPREPQVYTLPPSRCELTKNQVSLSCAVKGFYPSDIAVEWESNGQPENNYKTTPPVLDSDGSFFLVSKLTVDKSRWQQGNVFSCSVMHEALHNHYTQKSLSLSPDYKDDDDK EPKSSDKTHTCPPCPAPELLGGPSVFLFPPKPKDTLMISRTPEVTCVVVDVSHEDPEVKFNWYVDGVEVHNAKTKPREEQYNSTYRVVSVLTVLHQDWLNGKEYKCKVSNKALPAPIEKTISKAKGQPREPQVCTLPPSRDELTKNQVSLWCLVKGFYPSDIAVEWESNGQPENNYKTTPPVLDSDGSFFLYSKLTVDKSRWQQGNVFSCSVMHEALHNRYTQKSLSLSP light: DIVMTQSPLSLPVTPGEPASISCRSSQSLVHSNRNTYLHWYQQKPGQAPRLLIYKVSNRFSGVPDRFSGSGSGTDFTLKISRVEAEDVGVYYCGQGTQVPYTFGQGTKLEIKRTVAAPSVFIFPPSDEQLKSGTASVVCLLNNFYPREAKVQWKVDNALQSGNSQESVTEQDSKDSTYSLSSTLTLSKADYEKHKVYACEVTHQGLSSPVTKSFNRGEC | 1.15 |
